Assay results taken from paper PMC9851988.

Molecular target: His7-SUMO-Arc-C11^CFAS (not stated | E. coli)
Assay: BLI

- equilibrium response signal relative to His7-SUMO-Arc-C11^CFAS/R11A: 6 fold
Substance: anhydrotrypsin (enzyme)
